Ends that are not written are not given here.
Molecular target: T1, rabbit calcitonin receptor (rabbit, UniProt P79222 23-474)
T1 sequence (looked up): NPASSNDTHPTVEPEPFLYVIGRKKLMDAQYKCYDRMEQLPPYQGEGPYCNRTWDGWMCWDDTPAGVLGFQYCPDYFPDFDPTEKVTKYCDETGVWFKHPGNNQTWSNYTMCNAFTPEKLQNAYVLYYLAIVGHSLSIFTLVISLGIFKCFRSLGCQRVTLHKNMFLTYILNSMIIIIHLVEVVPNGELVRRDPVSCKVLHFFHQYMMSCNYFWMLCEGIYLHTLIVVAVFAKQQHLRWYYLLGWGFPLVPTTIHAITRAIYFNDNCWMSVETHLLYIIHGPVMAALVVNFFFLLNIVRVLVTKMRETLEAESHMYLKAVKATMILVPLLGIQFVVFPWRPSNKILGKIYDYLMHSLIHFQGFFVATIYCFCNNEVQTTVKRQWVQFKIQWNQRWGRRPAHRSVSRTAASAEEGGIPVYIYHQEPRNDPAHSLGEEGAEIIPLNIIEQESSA
Test: radioligand binding

Ki: 0.61 nM
B1: human calcitonin (ligand, UniProt P01258 85-116, looked up)
chain: CGNLSTCMLGTYTQDFNKFHTFPQTAIGVGAP
modifications: ends and bridges not checked; cysteine pairing not given here

Source: paper PMC2926129 (Regulatory peptides, 2010)
